# Results published in patent US20080267953A1 (Kyowa Kirin, published 2008).
# Legend:
# [1] = biological target: T1, polypeptide encoded by the human PERP gene, endogenously expressed on human cancer cell lines (PC9 / PC-9, … (human, UniProt Q96FX8 1-193)); experiment: flow cytometry on PC9 cells expressing PERP
# T1 construct: Four-transmembrane protein of 193 amino acids; also called hPERP; THW
# [2] = biological target: T2, human PERP with C-terminal myc-His tag expressed on CHO/DG44 cells from plasmid pcPERPmH (human, UniProt Q96FX8 1-193); experiment: FMAT fluorescent cell staining, hybridoma culture supernatant, PERP/CHO against CHO/DG44 cells
# T2 construct: The gene was cloned from plasmid HEMBA 1006335 (GenBank AK 074585); also called PERP/CHO cell; CHO/hPERP
# Procedure: With regard to the cells for the assay, PERP/CHO cells and CHO/DG44 cells produced in (1) of Reference Example 1 were used. The cells which were cultured on an Iscove's Modified Dulbecco's medium containing 10% fetal bovine serum (manufactured by Invitrogen) for 2 to 3 days and peeled off with a Tripsin-EDTA solution (manufactured by Invitrogen) were suspended on the same medium, seeded onto a black 96-well plates for FMAT at 7×10³ cells/100 μL medium/well and cultured overnight. Mouse anti-serum to be immunized or cultured supernatant of hybridoma cells was dispensed into the plate at 5 μL/well as a primary antibody, and ALEXA 647-labeled anti-mouse immunoglobulin G (H+ L) (manufactured by Molecular Probe) was dispensed at 50 μL/well as a secondary antibody, and the plate was allowed to stand for 4 hours under shading the light. Wavelength of 650 to 685 nm excited by laser beam of 633 nm He/Ne was measured by an FMAT 8100 HTS system (manufactured by Applied Biosystem).
# [3] = biological target: T1, polypeptide encoded by the human PERP …; experiment: flow cytometry on Colo 205 cells
# [4] = biological target: T2, human PERP with C-terminal myc-His tag …; experiment: flow cytometry on CHO/PERP (KC1359)
# Procedure: (§1) Binding activity of an anti-PERP humanized antibody having no consensus sequence of an N-linked sugar chain purified in (5) of Example 3 to CHO/PERP (KC1359) expressing a polypeptide encoded by the PERP gene, or PC9 cells used in (1) of Example 1 was measured using a fluorescent antibody technique as described below.
# (§2) CHO/PERP or PC9 cells (2 to 3×10⁵ per well) were dispensed in a 96-well U-shaped plate, a modified antibody wherein the anti-PERP humanized antibody having no consensus sequence of an N-linked sugar chain was diluted in eight stages in a 2-fold dilution starting from 10 μg/ml using a buffer for FCM (1% BSA-PBS, 0.02% EDTA and 0.05% NaN₃) was dispensed in an amount of 100 μL/well or the modified antibody diluted in eight stages in a 5-fold dilution starting from 10 μg/ml and a reaction was carried out on ice for 30 minutes. After washing with a buffer for FCM once, a solution in which a PE-labeled anti-human IgG (H+ L) antibody (manufactured by Beckmann-Coulter) diluted 50-fold with a buffer for FCM was added thereto in an amount of 100 μL/well. After the mixture was allowed to react for 30 minutes on ice protecting from the light, it was washed with a buffer for FCM twice and fluorescence intensity was measured using a flow cytometer. As a positive control, the anti-PERP human chimeric antibody KM3481 described in Reference Example 2 or the anti-PERP human chimeric antibody KM3821 (KM3821) having no consensus sequence of an N-linked sugar chain produced in Example 1 was used.
# [5] = biological target: T1, polypeptide encoded by the human PERP …; experiment: flow cytometry on PC-9 cells
# Procedure: as §1
# as §2, with “As a positive control, the anti-PERP human chimeric antibody KM3481 described in Reference Example 2 or the anti-PERP human chimeric antibody KM3821 (KM3821) having no consensus sequence of an N-linked sugar chain produced in Example 1 was used.” left out
Binder,binding result [1],binding result [4],further results
"anti-PERP CDR-modified antibody ver.1 (antibody, V domains shown, Human chimeric antibody of IgG class; also called pKANTEX3411 CDR v1) VH: DVQLQESGPGLVKPSQSLSLTCTVTGFSITTEYAWNWIRQFPGNRLEWMGYIGYTGRTSYSPSLKSRISITRDTSKNQFFLQLNSVTTEDTATYYCTRMDYWGQGTSVTVSS VL: QIVLIQSPVIMSASPGEKVTITCSASSSVSYMHWFQQKPGTSPKLWIYSTSNLASGVPARFSGSGSGTSYSLTISRMEAEDAATYYCQQRSSYPPTFGAGTKLELK",binds,–,–
"anti-PERP CDR-modified antibody ver.5 (antibody, V domains shown, Human chimeric antibody of IgG class; also called pKANTEX3411 CDR v5) VH: DVQLQESGPGLVKPSQSLSLTCTVTGFSITTEYAWNWIRQFPGNRLEWMGYIGYTGRTSYAPSLKSRISITRDTSKNQFFLQLNSVTTEDTATYYCTRMDYWGQGTSVTVSS VL: QIVLIQSPVIMSASPGEKVTITCSASSSVSYMHWFQQKPGTSPKLWIYSTSNLASGVPARFSGSGSGTSYSLTISRMEAEDAATYYCQQRSSYPPTFGAGTKLELK",binds,–,–
"anti-PERP mouse monoclonal antibody KM3411 (hybridoma FERM BP-8643) (antibody, V domains shown, Mouse IgG1; also called anti-PERP mouse antibody KM3411) VH: DVQLQESGPGLVKPSQSLSLTCTVTGFSITTEYAWNWIRQFPGNRLEWMGYIGYTGRTNYSPSLKSRISITRDTSKNQFFLQLNSVTTEDTATYYCTRMDYWGQGTSVTVSS VL: QIVLIQSPVIMSASPGEKVTITCSASSSVSYMHWFQQKPGTSPKLWIYSTSNLASGVPARFSGSGSGTSYSLTISRMEAEDAATYYCQQRSSYPPTFGAGTKLELK",–,–,binding result [2]: binds; binding result [3]: binds
"anti-PERP CDR-modified antibody ver.2 (antibody, V domains shown, Human chimeric antibody of IgG class; also called pKANTEX3411 CDR v2) VH: DVQLQESGPGLVKPSQSLSLTCTVTGFSITTEYAWNWIRQFPGNRLEWMGYIGYTGRTGYSPSLKSRISITRDTSKNQFFLQLNSVTTEDTATYYCTRMDYWGQGTSVTVSS VL: QIVLIQSPVIMSASPGEKVTITCSASSSVSYMHWFQQKPGTSPKLWIYSTSNLASGVPARFSGSGSGTSYSLTISRMEAEDAATYYCQQRSSYPPTFGAGTKLELK",binds,–,–
"anti-PERP CDR-modified antibody ver.6 (antibody, V domains shown, Human chimeric antibody of IgG class; also called pKANTEX3411 CDR v6) VH: DVQLQESGPGLVKPSQSLSLTCTVTGFSITTEYAWNWIRQFPGNRLEWMGYIGYTGRTGYAPSLKSRISITRDTSKNQFFLQLNSVTTEDTATYYCTRMDYWGQGTSVTVSS VL: QIVLIQSPVIMSASPGEKVTITCSASSSVSYMHWFQQKPGTSPKLWIYSTSNLASGVPARFSGSGSGTSYSLTISRMEAEDAATYYCQQRSSYPPTFGAGTKLELK",binds,–,–
"anti-PERP CDR-modified antibody ver.3 (antibody, V domains shown, Human chimeric antibody of IgG class; also called pKANTEX3411 CDR v3) VH: DVQLQESGPGLVKPSQSLSLTCTVTGFSITTEYAWNWIRQFPGNRLEWMGYIGYTGRTYYSPSLKSRISITRDTSKNQFFLQLNSVTTEDTATYYCTRMDYWGQGTSVTVSS VL: QIVLIQSPVIMSASPGEKVTITCSASSSVSYMHWFQQKPGTSPKLWIYSTSNLASGVPARFSGSGSGTSYSLTISRMEAEDAATYYCQQRSSYPPTFGAGTKLELK",binds,–,–
"anti-PERP humanized antibody HV4LV4 (antibody, V domains shown) VH: QVQLQESGPGLVKPSQTLSLTCTVSGFSISTEYAWNWIRQFPGKGLEWIGYIGYTGRTNYAPSLKSRITISRDTSKNQFSLQLSSVTAEDTATYYCTRMDYWGQGTLVTVSS VL: DIQMTQSPSSLSASVGDRVTITCSASSSVSYMHWFQQKPGKAPKLWIYSTSNLASGVPSRFSGSGSGTDYTLTISSMQPEDFATYYCQQRSSYPPTFGQGTKVEIK",–,binds,binding result [5]: binds
"anti-PERP humanized antibody HV4LV3 (antibody, V domains shown) VH: QVQLQESGPGLVKPSQTLSLTCTVSGFSISTEYAWNWIRQFPGKGLEWIGYIGYTGRTNYAPSLKSRITISRDTSKNQFSLQLSSVTAEDTATYYCTRMDYWGQGTLVTVSS VL: DIQMTQSPSSLSASVGDRVTITCSASSSVSYMHWYQQKPGKAPKLWIYSTSNLASGVPSRFSGSGSGTDYTLTISSMQPEDFATYYCQQRSSYPPTFGQGTKVEIK",–,binds,–
"anti-PERP humanized antibody HV8LV0 (antibody, V domains shown) VH: QVQLQESGPGLVKPSQTLSLTCTVSGFSITTEYAWNWIRQFPGNRLEWMGYIGYTGRTNYAPSLKSRITISRDTSKNQFSLQLSSVTAEDTATYYCTRMDYWGQGTLVTVSS VL: DIQMTQSPSSLSASVGDRVTITCSASSSVSYMHWYQQKPGKAPKLLIYSTSNLASGVPSRFSGSGSGTDFTLTISSLQPEDFATYYCQQRSSYPPTFGQGTKVEIK",–,–,binding activity relative to KM3821 [4]: ~0.2 fraction of the binding activity of KM3821
"anti-PERP humanized antibody HV4LV7 (antibody, V domains shown) VH: QVQLQESGPGLVKPSQTLSLTCTVSGFSISTEYAWNWIRQFPGKGLEWIGYIGYTGRTNYAPSLKSRITISRDTSKNQFSLQLSSVTAEDTATYYCTRMDYWGQGTLVTVSS VL: DIVMIQSPSSLSASVGDRVTITCSASSSVSYMHWFQQKPGKSPKLWIYSTSNLASGVPSRFSGSGSGTDYTLTISSMQPEDFATYYCQQRSSYPPTFGQGTKVEIK",–,binds,–
"anti-PERP humanized antibody HV8LV7 (antibody, V domains shown) VH: QVQLQESGPGLVKPSQTLSLTCTVSGFSITTEYAWNWIRQFPGNRLEWMGYIGYTGRTNYAPSLKSRITISRDTSKNQFSLQLSSVTAEDTATYYCTRMDYWGQGTLVTVSS VL: DIVMIQSPSSLSASVGDRVTITCSASSSVSYMHWFQQKPGKSPKLWIYSTSNLASGVPSRFSGSGSGTDYTLTISSMQPEDFATYYCQQRSSYPPTFGQGTKVEIK",–,binds,–
